Results taken from publication PMC9425028, “The complex formation of MASP-3 with pattern recognition molecules of the lectin complement pathway retains MASP-3 in the circulation” (Frontiers in Immunology, 2022).

Legend:
Experiment in all cases: ELISA; sandwich ELISA: 10 ug each of rmMASP-3-PA and rmMASP-3-ALFA mixed, dialysed against TBS/10 mM EDTA 24 h at 4°C, then against TBS/5 mM CaCl2 24 h at 4°C; 0.14 uM of each, serially diluted in 20% Blocking One in TBS/Ca; captured on anti-PA tag antibody, 30 min room temperature; detected with HRP-conjugated anti-ALFA nanobody
Settings in all cases: both partners purified
[1] = target: T1, E49A mutant recombinant mouse MASP-3 fused with PA-tag (mouse, UniProt P98064-2 25-733, E49A)
T1 construct: Made from the pCAG-Bsd PA tag-C/WT rmMASP-3 plasmid by site-directed mutagenesis; also called E49A rmMASP-3-PA; mutant rmMASP-3-PA; source: CHO cells, transfected, culture supernatant, purified (anti-PA tag antibody beads); not shown: PA tag (human podoplanin dodecapeptide), C-terminal, kept
T1 sequence (looked up): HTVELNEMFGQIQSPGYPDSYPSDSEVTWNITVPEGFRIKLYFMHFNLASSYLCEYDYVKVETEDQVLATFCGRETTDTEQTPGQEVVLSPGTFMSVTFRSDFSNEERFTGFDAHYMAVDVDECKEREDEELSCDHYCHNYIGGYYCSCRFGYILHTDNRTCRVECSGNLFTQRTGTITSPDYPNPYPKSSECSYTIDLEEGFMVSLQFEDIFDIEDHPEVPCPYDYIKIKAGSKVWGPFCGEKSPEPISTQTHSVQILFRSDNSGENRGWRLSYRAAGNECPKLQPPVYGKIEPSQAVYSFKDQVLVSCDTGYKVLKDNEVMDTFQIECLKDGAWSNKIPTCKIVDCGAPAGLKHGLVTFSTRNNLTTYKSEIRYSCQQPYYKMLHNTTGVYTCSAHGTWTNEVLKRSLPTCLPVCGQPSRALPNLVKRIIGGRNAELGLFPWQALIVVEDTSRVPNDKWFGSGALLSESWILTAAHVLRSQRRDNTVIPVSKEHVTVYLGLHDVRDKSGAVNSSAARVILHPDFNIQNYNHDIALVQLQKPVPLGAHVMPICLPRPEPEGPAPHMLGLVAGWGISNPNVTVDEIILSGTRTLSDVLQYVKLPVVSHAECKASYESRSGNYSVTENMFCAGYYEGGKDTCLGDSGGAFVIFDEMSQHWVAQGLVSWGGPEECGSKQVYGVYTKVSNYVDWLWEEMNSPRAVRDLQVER

[2] = target: T2, Y225A mutant recombinant mouse MASP-3 fused with PA-tag (mouse, UniProt P98064-2 25-733, Y225A)
T2 construct: Made from the pCAG-Bsd PA tag-C/WT rmMASP-3 plasmid by site-directed mutagenesis; also called Y225A rmMASP-3-PA; mutant rmMASP-3-PA; source: CHO cells, transfected, culture supernatant, purified (anti-PA tag antibody beads); not shown: PA tag (human podoplanin dodecapeptide), C-terminal, kept
T2 sequence (looked up): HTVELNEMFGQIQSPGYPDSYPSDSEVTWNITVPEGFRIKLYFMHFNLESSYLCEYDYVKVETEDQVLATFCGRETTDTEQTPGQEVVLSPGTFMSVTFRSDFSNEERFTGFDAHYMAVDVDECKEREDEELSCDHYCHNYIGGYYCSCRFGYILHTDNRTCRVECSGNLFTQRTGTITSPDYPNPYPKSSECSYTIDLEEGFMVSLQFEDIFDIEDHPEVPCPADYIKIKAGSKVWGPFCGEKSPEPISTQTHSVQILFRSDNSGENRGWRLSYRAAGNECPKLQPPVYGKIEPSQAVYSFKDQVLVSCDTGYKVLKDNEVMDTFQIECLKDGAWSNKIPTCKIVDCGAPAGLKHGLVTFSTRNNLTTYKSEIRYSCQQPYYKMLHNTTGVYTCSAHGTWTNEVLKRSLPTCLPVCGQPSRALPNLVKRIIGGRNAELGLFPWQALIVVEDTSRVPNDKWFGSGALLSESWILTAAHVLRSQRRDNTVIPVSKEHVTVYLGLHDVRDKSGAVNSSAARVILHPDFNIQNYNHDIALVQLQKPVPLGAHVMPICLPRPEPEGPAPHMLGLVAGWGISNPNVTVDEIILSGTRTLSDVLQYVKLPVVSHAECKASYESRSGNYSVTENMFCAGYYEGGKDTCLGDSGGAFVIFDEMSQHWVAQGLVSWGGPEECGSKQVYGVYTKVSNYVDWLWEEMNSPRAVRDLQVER

[3] = target: T3, H218A mutant recombinant mouse MASP-3 fused with PA-tag (mouse, UniProt P98064-2 25-733, H218A)
T3 construct: Made from the pCAG-Bsd PA tag-C/WT rmMASP-3 plasmid by site-directed mutagenesis; also called H218A rmMASP-3-PA; mutant rmMASP-3-PA; source: CHO cells, transfected, culture supernatant, purified (anti-PA tag antibody beads); not shown: PA tag (human podoplanin dodecapeptide), C-terminal, kept
T3 sequence (looked up): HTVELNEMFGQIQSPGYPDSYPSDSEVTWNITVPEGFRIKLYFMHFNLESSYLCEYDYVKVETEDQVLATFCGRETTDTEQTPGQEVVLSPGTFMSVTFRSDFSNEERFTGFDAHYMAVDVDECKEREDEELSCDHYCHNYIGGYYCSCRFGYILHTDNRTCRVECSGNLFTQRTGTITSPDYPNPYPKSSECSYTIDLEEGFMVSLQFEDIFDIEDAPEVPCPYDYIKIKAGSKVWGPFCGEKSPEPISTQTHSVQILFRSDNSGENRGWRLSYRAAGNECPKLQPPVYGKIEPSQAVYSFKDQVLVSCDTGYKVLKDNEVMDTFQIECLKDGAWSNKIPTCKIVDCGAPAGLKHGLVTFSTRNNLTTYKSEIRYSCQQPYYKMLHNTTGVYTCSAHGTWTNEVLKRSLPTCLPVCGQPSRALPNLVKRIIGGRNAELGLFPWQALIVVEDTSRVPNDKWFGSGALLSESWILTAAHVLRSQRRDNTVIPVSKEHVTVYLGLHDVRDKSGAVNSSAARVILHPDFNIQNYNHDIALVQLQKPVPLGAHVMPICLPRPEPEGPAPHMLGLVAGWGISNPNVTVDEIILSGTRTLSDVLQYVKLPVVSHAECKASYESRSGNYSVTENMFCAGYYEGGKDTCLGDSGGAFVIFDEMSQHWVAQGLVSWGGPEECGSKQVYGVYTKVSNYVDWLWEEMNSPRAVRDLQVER

[4] = target: T4, wild-type recombinant mouse MASP-3 fused with PA-tag (WT rmMASP-3-PA) (mouse, UniProt P98064-2 25-733)
T4 construct: Secreted from CHO cells, purified as a proenzyme of about 110 kDa; in the circulation partly cleaved into H-chain and L-chain (active form); also called WT-PA; source: CHO cells, transfected, culture supernatant, purified (anti-PA tag antibody beads); not shown: PA tag (human podoplanin dodecapeptide), C-terminal, kept
T4 sequence (looked up): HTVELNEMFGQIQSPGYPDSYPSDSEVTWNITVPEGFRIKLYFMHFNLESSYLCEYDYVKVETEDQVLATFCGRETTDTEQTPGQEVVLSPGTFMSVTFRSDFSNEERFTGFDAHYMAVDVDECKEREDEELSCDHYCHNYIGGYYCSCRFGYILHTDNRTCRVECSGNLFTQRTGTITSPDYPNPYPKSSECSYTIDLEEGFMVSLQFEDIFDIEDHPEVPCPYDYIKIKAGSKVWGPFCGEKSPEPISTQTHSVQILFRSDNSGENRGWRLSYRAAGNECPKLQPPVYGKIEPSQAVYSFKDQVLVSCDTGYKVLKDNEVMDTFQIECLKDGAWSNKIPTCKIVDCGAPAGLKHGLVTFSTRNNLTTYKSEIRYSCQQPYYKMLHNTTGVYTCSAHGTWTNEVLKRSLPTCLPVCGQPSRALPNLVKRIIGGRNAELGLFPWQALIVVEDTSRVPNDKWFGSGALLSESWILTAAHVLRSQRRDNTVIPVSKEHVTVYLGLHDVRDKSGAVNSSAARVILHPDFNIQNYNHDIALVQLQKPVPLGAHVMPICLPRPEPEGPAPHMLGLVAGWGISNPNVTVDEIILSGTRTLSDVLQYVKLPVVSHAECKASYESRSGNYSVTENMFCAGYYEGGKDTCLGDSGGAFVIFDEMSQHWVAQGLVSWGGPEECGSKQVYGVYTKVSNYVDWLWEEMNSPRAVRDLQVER

binding result [1]: binds
binding result [2]: binds
binding result [3]: binds
binding result [4]: binds
B1: wild-type recombinant mouse MASP-3 with ALFA tag (WT rmMASP-3-ALFA) (enzyme, UniProt P98064-2 25-733, looked up)
chain: HTVELNEMFGQIQSPGYPDSYPSDSEVTWNITVPEGFRIKLYFMHFNLESSYLCEYDYVKVETEDQVLATFCGRETTDTEQTPGQEVVLSPGTFMSVTFRSDFSNEERFTGFDAHYMAVDVDECKEREDEELSCDHYCHNYIGGYYCSCRFGYILHTDNRTCRVECSGNLFTQRTGTITSPDYPNPYPKSSECSYTIDLEEGFMVSLQFEDIFDIEDHPEVPCPYDYIKIKAGSKVWGPFCGEKSPEPISTQTHSVQILFRSDNSGENRGWRLSYRAAGNECPKLQPPVYGKIEPSQAVYSFKDQVLVSCDTGYKVLKDNEVMDTFQIECLKDGAWSNKIPTCKIVDCGAPAGLKHGLVTFSTRNNLTTYKSEIRYSCQQPYYKMLHNTTGVYTCSAHGTWTNEVLKRSLPTCLPVCGQPSRALPNLVKRIIGGRNAELGLFPWQALIVVEDTSRVPNDKWFGSGALLSESWILTAAHVLRSQRRDNTVIPVSKEHVTVYLGLHDVRDKSGAVNSSAARVILHPDFNIQNYNHDIALVQLQKPVPLGAHVMPICLPRPEPEGPAPHMLGLVAGWGISNPNVTVDEIILSGTRTLSDVLQYVKLPVVSHAECKASYESRSGNYSVTENMFCAGYYEGGKDTCLGDSGGAFVIFDEMSQHWVAQGLVSWGGPEECGSKQVYGVYTKVSNYVDWLWEEMNSPRAVRDLQVER
notes: The fragment was put into the pCAG-Bsd PA tag-C vector; also called WT-ALFA; source: CHO cells, transfected, culture supernatant, purified (ALFA Selector ST); not shown: ALFA tag, C-terminal, kept
